In US20260234251A1 (IMNOTECH, published 2026):

Target: T1, human CD2 (cluster of differentiation 2) (human, UniProt P06729 25-351)
T1 construct: Presented on cells: human CD8+ T cells, CD2-transduced U698M B-cell lymphoma cells, Jurkat cells and human PBMCs; also called CD2 target antigen; CD2 surface marker
T1 sequence: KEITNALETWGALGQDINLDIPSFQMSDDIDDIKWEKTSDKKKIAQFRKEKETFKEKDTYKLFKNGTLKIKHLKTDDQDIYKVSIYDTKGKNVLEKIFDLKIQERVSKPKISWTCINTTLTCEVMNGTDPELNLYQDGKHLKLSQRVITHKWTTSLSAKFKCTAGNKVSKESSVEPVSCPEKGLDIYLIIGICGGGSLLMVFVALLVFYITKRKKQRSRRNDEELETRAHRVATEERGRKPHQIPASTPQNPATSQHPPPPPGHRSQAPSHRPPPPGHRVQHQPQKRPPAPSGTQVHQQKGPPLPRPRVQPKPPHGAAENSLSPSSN
Assay: flow cytometry titration on human CD8+ T cells, one-site specific binding fit, triplicates
Protocol: Determined affinity binding curves for CD2-sdAb (B) at different concentrations on human CD8+ T cells. R3b23-sdAb served as a negative control for unspecific binding (A). Binding of CD2-sdAb (B) is shown as a fraction of the maximum specific binding (Bₘₐₓ) and the binding intensity of R3b23-sdAb (A) is shown via the MFI at the different concentrations. Measurements were performed in triplicates and data is depicted on a semi-logarithmic scale. The dissociation constant (Ko) for CD2 was calculated based of one-site specific binding and is 2.3×10⁻⁹ [M].

Kd: 2.3 nM
B1: anti-CD2 single domain antibody according to SEQ ID No. 18 (VHH)
VHH: QVQLQESGGGSVQPGGSLRLSCTVSGRTFSNYAVGWFRQAPGKEREFVATITGSGTAYADSVKGRFTISRDNAKNTVYLQMNSLKPEDTAVYYCAATWSSGYTFRSPTQYDYWGQGTQVTVSS
notes: also called CD2-sdAb; anti-CD2-sdAb
